Measured values reported in publication PMC8151781, “Ca^2+ Regulates ERp57-Calnexin Complex Formation” (Molecules, 2021).

B1: luminal domain of human calnexin (residues 21-481) (domain or fragment, UniProt P27824 21-481, looked up)
chain: HDGHDDDVIDIEDDLDDVIEEVEDSKPDTTAPPSSPKVTYKAPVPTGEVYFADSFDRGTLSGWILSKAKKDDTDDEIAKYDGKWEVEEMKESKLPGDKGLVLMSRAKHHAISAKLNKPFLFDTKPLIVQYEVNFQNGIECGGAYVKLLSKTPELNLDQFHDKTPYTIMFGPDKCGEDYKLHFIFRHKNPKTGIYEEKHAKRPDADLKTYFTDKKTHLYTLILNPDNSFEILVDQSVVNSGNLLNDMTPPVNPSREIEDPEDRKPEDWDERPKIPDPEAVKPDDWDEDAPAKIPDEEATKPEGWLDDEPEYVPDPDAEKPEDWDEDMDGEWEAPQIANPRCESAPGCGVWQRPVIDNPNYKGKWKPPMIDNPSYQGIWKPRKIPNPDFFEDLEPFRMTPFSAIGLELWSMTSDIFFDNFIICADRRIVDDWANDGWGLKKAADGAAEPGVVGQMIEAAEERP
notes: calnexin (CNX), human, luminal domain, residues 21-481; pET15b construct; the N-terminal His tag was removed from the plasmid and a His tag added at the C-terminus; also called CNX; ER-luminal domain of CNX
B2: human ERp57 (residues 25-505) (enzyme, UniProt P30101 25-505, looked up)
chain: SDVLELTDDNFESRISDTGSAGLMLVEFFAPWCGHCKRLAPEYEAAATRLKGIVPLAKVDCTANTNTCNKYGVSGYPTLKIFRDGEEAGAYDGPRTADGIVSHLKKQAGPASVPLRTEEEFKKFISDKDASIVGFFDDSFSEAHSEFLKAASNLRDNYRFAHTNVESLVNEYDDNGEGIILFRPSHLTNKFEDKTVAYTEQKMTSGKIKKFIQENIFGICPHMTEDNKDLIQGKDLLIAYYDVDYEKNAKGSNYWRNRVMMVAKKFLDAGHKLNFAVASRKTFSHELSDFGLESTAGEIPVVAIRTAKGEKFVMQEEFSRDGKALERFLQDYFDGNLKRYLKSEPIPESNDGPVKVVVAENFDEIVNNENKDVLIEFYAPWCGHCKNLEPKYKELGEKLSKDPNIVIAKMDATANDVPSPYEVRGFPTIYFSPANKKLNPKKYEGGRELSDFISYLQREATNPPVIQEEKPKKKKKAQEDL
notes: ERp57 (protein disulfide isomerase family member), human, residues 25-505; Cloned into the NdeI and BamHI sites of pET15b; also called wild-type ERp57

Legend:
Conditions in all cases: both partners purified
[1] = molecular target: B2; test: ITC; ERp57 (370 μM) in the syringe titrated into CNX (25 μM) in the cell; 20 mM HEPES pH 7.2, 100 mM NaCl, without Ca2+, 15 °C; one-set-of-sites model
[2] = molecular target: B2; test: ITC; ERp57 (370 μM) in the syringe titrated into CNX (25 μM) in the cell; 20 mM HEPES pH 7.2, 100 mM NaCl, with 1 mM CaCl2, 15 °C; one-set-of-sites model
[3] = molecular target: B1; test: ITC; ERp57 (370 μM) in the syringe titrated into CNX (25 μM) in the cell; 20 mM HEPES pH 7.2, 100 mM NaCl, without Ca2+, 15 °C; one-set-of-sites model
[4] = molecular target: B1; test: ITC; ERp57 (370 μM) in the syringe titrated into CNX (25 μM) in the cell; 20 mM HEPES pH 7.2, 100 mM NaCl, with 1 mM CaCl2, 15 °C; one-set-of-sites model

Binder | Kd [1] [nM] | Kd [2] [nM] | dH [3] [kcal/mol] | dH [4] [kcal/mol]
B1 | 880 | 1520 | – | –
B2 | – | – | -3.31 | -3.81
